T1: Methanocaldococcus jannaschii RecJ2 (MJ0831) (Methanocaldococcus jannaschii (strain …, UniProt Q58241))
T1 chain: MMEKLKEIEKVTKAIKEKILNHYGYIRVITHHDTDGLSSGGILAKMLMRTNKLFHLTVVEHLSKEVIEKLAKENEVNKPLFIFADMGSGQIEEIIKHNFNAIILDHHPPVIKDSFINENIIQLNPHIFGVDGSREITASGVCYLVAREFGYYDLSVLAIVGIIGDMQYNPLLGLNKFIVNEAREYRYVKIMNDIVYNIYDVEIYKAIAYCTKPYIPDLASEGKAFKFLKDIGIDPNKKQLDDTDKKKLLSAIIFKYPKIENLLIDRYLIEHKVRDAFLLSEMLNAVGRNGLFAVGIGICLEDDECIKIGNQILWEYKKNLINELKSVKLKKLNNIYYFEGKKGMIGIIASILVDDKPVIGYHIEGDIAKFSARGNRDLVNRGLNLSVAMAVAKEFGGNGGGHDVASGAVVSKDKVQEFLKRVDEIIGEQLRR


What was measured:
[1] = target: T1, Methanocaldococcus jannaschii RecJ2 …; assay: Ni-NTA pulldown (co-purification)
[2] = target: T1, Methanocaldococcus jannaschii RecJ2 …; assay: gel filtration (Superdex 200); MST also negative

Binder	binding result [1]	binding result [2]
Methanocaldococcus jannaschii GINS (MJ0248), 6×His tag and sumo domain removed (protein) MRVFIIIIYFRCFSKDHKPYFVITMYESLKNYFFEEIKNDKLLKLPDDFYDDIREYIKNIKDDIELERVKYYFKELRKLRIYKALYLDNERENLLPEELNIIHAIENIVVELKIEETPEFKKPTEIDTPKPIYTINDIDVVKVDKNFPPFTDGTFIYDLNKNDVLSLDRKISHILEKHRIISRIGESYENPEES	no binding	
Methanocaldococcus jannaschii GINS (MJ0248), tag state not stated (protein) MRVFIIIIYFRCFSKDHKPYFVITMYESLKNYFFEEIKNDKLLKLPDDFYDDIREYIKNIKDDIELERVKYYFKELRKLRIYKALYLDNERENLLPEELNIIHAIENIVVELKIEETPEFKKPTEIDTPKPIYTINDIDVVKVDKNFPPFTDGTFIYDLNKNDVLSLDRKISHILEKHRIISRIGESYENPEES		no binding

Reference: publication PMC5615345 (2017)
